{"source": "patent US20090081786A1", "about": "“Peptide sequences for modulation of protein kinase C” (priority 2006, published 2009)", "biological_target": "δ-PKC in isolated rat hearts (rat), P09215", "sequence (P09215 whole entry, stated change not applied)": "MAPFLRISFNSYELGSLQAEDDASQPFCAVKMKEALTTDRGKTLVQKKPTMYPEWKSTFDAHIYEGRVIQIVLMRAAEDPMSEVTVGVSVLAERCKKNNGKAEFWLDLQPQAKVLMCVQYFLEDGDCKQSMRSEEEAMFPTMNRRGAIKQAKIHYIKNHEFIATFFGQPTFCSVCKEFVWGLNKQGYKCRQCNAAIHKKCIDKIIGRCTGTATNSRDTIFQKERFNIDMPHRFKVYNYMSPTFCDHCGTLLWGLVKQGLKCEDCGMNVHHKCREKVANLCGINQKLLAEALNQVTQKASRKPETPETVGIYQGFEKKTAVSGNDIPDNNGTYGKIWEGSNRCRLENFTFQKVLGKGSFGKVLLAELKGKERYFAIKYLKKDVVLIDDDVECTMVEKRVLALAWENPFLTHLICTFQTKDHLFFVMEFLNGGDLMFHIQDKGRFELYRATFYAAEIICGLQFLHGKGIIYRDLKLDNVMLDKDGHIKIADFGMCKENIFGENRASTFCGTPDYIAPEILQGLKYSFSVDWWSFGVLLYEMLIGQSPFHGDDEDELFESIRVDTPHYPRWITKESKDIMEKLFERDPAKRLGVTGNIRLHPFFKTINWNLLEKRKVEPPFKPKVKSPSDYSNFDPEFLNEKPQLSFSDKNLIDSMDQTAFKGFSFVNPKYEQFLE", "test": "cell-based or functional assay"}
{"binder": "annexin V-derived peptide pAnxV (annexin V residues 157-164) conjugated to TAT47-57 carrier peptide (modifications not checked) peptide: LQANRDPD YGKKRRQRRR", "values": [{"measurement": "creatine phosphokinase (CPK) release in the heart perfusate during reperfusion", "result": "> 50", "unit": "% reduction"}, {"measurement": "infarct size after ischemia/reperfusion in isolated rat hearts", "result": 70, "unit": "% reduction"}]}
